Results taken from publication PMC3759463 (PLoS ONE, 2013).
Where two headings read alike, the source gives them in different places. Peptide text beside a SMILES is read from it.

How the values were obtained:
[1] = biological target: HLA-DRB5*01∶01 (recombinant HLA-DR alpha chain with FOS zipper paired with HLA-DRB5*01∶01 beta chain with JUN zipper and BSP); assay: AlphaScreen or HTRF
[2] = biological target: HLA-DRB1*15∶01 (recombinant HLA-DR alpha chain with FOS zipper paired with HLA-DRB1*15∶01 beta chain with JUN zipper and BSP); assay: AlphaScreen or HTRF
[3] = biological target: HLA-DRB1*01∶01 (recombinant HLA-DR alpha chain with FOS zipper paired with HLA-DRB1*01∶01 beta chain with JUN zipper and BSP); assay: AlphaScreen or HTRF
HLA-DRB1*15∶01 = biological target: T1, HLA-DRB1*15∶01 (Homo sapiens, UniProt P01903+P01911); assay: biochemical; format: binding; details: C-terminally H6-tagged peptide, read-out: KD (nM) HLA-DRB1*15∶01 + tag
T1 construct: expression of transmembrane-truncated versions of isolated α and in vivo biotinylated β chain molecules in E. coli; made in house

HLA-DRB5*01∶01 = biological target: T2, HLA-DRB5*01∶01 (Homo sapiens, UniProt P01903+Q30154); assay: biochemical; format: binding
T2 construct: expression of transmembrane-truncated versions of isolated α and in vivo biotinylated β chain molecules in E. coli; made in house

HLA-DRB1*01∶01 = biological target: T3, HLA-DRB1*01∶01 (Homo sapiens, UniProt P01903+P01911, A100R/D57E/F55L/F60I/F76Y/I96L/L162R/M171V/P40L/Q125E/R42F/V115G/Y59C); assay: biochemical; format: binding; details: C-terminally H6-tagged peptide, read-out: KD (nM) HLA-DRB1*01∶01 + tag
T3 construct: expression of transmembrane-truncated versions of isolated α and in vivo biotinylated β chain molecules in E. coli; made in house

[4] = C-terminally H6-tagged peptide, […], read-out: KD (nM) HLA-DRB5*01∶01 + tag

Influenza A peptide HA_(307–318)
Kd [1]: 4 nM | Kd [2]: 25 nM | Kd [3]: 9 nM

cytomegalovirus (CMV) peptide IE1_(211–225)
Kd [1]: 8 nM

CC(C)C[C@H](NC(=O)[C@@H](NC(=O)[C@H](Cc1ccccc1)NC(=O)[C@@H](NC(=O)[C@H](Cc1ccccc1)NC(=O)CNC(=O)[C@@H](N)CC(C)C)C(C)C)[C@@H](C)O)C(=O)N[C@H](C(=O)N[C@H](C(=O)N1CCC[C@H]1C(=O)N[C@@H](CO)C(=O)N[C@@H](CCC(=O)O)C(=O)N[C@@H](CCCNC(=N)N)C(=O)NCC(=O)N[C@@H](Cc1c[nH]cn1)C(=O)N[C@@H](Cc1c[nH]cn1)C(=O)N[C@@H](Cc1c[nH]cn1)C(=O)N[C@@H](Cc1c[nH]cn1)C(=O)N[C@@H](Cc1c[nH]cn1)C(=O)N[C@@H](Cc1c[nH]cn1)C(=O)O)C(C)C)[C@@H](C)O [Influenza A MP60–72 + tag] (H-LGFVFTLTVPSERGHHHHHH-OH)
Kd (HLA-DRB1*15∶01): 282 nM | Kd (HLA-DRB5*01∶01; [4]): 13 nM | Kd (HLA-DRB1*01∶01): 40 nM

cytomegalovirus (CMV) peptide IE1_(211–225(H6))
Kd [1]: 8 nM | Kd [2]: 127 nM | Kd [3]: 42 nM

Influenza A peptide MP_(60–73)
Kd [1]: 7 nM | Kd [2]: 270 nM | Kd [3]: 17 nM

CC(C)C[C@H](NC(=O)[C@@H](NC(=O)[C@H](Cc1ccccc1)NC(=O)[C@@H](NC(=O)[C@H](Cc1ccccc1)NC(=O)CNC(=O)[C@@H](N)CC(C)C)C(C)C)[C@@H](C)O)C(=O)N[C@H](C(=O)N[C@H](C(=O)N1CCC[C@H]1C(=O)N[C@@H](CO)C(=O)N[C@@H](CCC(=O)O)C(=O)N[C@@H](CCCNC(=N)N)C(=O)NCC(=O)O)C(C)C)[C@@H](C)O [Influenza A MP60–72, reference compound]
Kd (HLA-DRB5*01∶01; read-out: KD (nM) HLA-DRB5*01∶01 − tag): 7 nM

Influenza A peptide MP_(60–73(H6))
Kd [1]: 13 nM | Kd [2]: 282 nM | Kd [3]: 40 nM

Hepatitis C peptide Hep C-NS3_(218–235(H6))
Kd [1]: 37 nM | Kd [2]: 2 nM | Kd [3]: 5 nM

Hepatitis C (Hep C) peptide NS3_(218–235)
Kd [2]: 2 nM | Kd [3]: 3 nM

Influenza A peptide HA_(307–318(H6))
Kd [1]: 17 nM | Kd [2]: 345 nM | Kd [3]: 19 nM

CC(C)C[C@H](NC(=O)[C@H](CCCCN)NC(=O)[C@H](CC(C)C)NC(=O)[C@@H](NC(=O)[C@H](CC(N)=O)NC(=O)[C@H](CCC(N)=O)NC(=O)[C@H](CCCCN)NC(=O)[C@@H](NC(=O)[C@H](Cc1ccc(O)cc1)NC(=O)[C@H](CCCCN)NC(=O)[C@@H](N)Cc1ccc(O)cc1)C(C)C)[C@@H](C)O)C(=O)N[C@@H](C)C(=O)N[C@H](C(=O)N[C@@H](Cc1c[nH]cn1)C(=O)N[C@@H](Cc1c[nH]cn1)C(=O)N[C@@H](Cc1c[nH]cn1)C(=O)N[C@@H](Cc1c[nH]cn1)C(=O)N[C@@H](Cc1c[nH]cn1)C(=O)N[C@@H](Cc1c[nH]cn1)C(=O)O)[C@@H](C)O [Influenza A HA306–318 + tag] (H-YKYVKQNTLKLATHHHHHH-OH)
Kd (HLA-DRB1*15∶01): 345 nM | Kd (HLA-DRB5*01∶01; [4]): 17 nM
